Assays:
[1] = tested on: HeLa Kyoto; assay: melting temperature (median over replicates), in situ; higher = more thermally stable
[2] = tested on: HeLa Kyoto; assay: solubility in G1/S (NP-40 vs SDS abundance) (log2 ratio); higher = more soluble; details: cell cycle stage: G1/S
[3] = tested on: HeLa Kyoto; assay: thermal stability score vs G1/S (z-score of summed log2 fold changes over temperatures); higher = more thermally stable than in G1/S
[4] = tested on: HeLa Kyoto; assay: solubility change mitosis vs G1/S (difference of NP-40 vs SDS log2 ratios) (log2 ratio difference); higher = more soluble in mitosis
[5] = cell cycle stage: early G1 (4.5 h after nocodazole release)
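For melting temperature (median over replicates), in situ in this document: HeLa Kyoto cells synchronized by double thymidine or nocodazole block, proteins quantified by TMT10plex mass spectrometry, three independent biological replicates.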
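For solubility change mitosis vs G1/S (difference of NP-40 vs SDS log2 ratios) in this document: synchronized HeLa Kyoto cells (double thymidine block for G1/S, nocodazole release for mitosis), protein amounts in NP-40 versus SDS lysates quantified by mass spectrometry, three biological replicates.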
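For solubility in G1/S (NP-40 vs SDS abundance) in this document: HeLa Kyoto cells arrested at G1/S by double thymidine block, proteins quantified by TMT10plex mass spectrometry in mild NP-40 versus SDS extracts, three biological replicates.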
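For thermal stability score vs G1/S (z-score of summed log2 fold changes over temperatures) in this document: synchronized HeLa Kyoto cells, proteins quantified by TMT10plex mass spectrometry, three biological replicates, mitosis taken 0.5 h after nocodazole release, G1/S directly after double thymidine block.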

Row | Substance | melting temperature ([1]; cell cycle stage: G1/S) | melting temperature ([1]; cell cycle stage: mitosis) | solubility in G1/S (log2) [2] | thermal stability score [3, 5] | thermal stability score ([3]; cell cycle stage: mitosis) | solubility change mitosis (log2) [4]
1 | MGETMSKRLKLHLGGEAEMEERAFVNPFPDYEAAAGALLASGAAEETGCVRPPATTDEPGLPFHQDGKIIHNFIRRIQTKIKDLLQQMEEGLKTADPHDCSAYTGWTGIALLYLQLYRVTCDQTYLLRSLDYVKRTLRNLNGRRVTFLCGDAGPLAVGAVIYHKLRSDCESQECVTKLLQLQRSVVCQESDLPDELLYGRAGYLYALLYLNTEIGPGTVCESAIKEVVNAIIESGKTLSREERKTERCPLLYQWHRKQYVGAAHGMAGIYYMLMQPAAKVDQETLTEMVKPSIDYVRHKKFRSGNYPSSLSNETDRLVHWCHGAPGVIHMLMQAYKVFKEEKYLKEAMECSDVIWQRGLLRKGYGICHGTAGNGYSFLSLYRLTQDKKYLYRACKFAEWCLDYGAHGCRIPDRPYSLFEGMAGAIHFLSDVLGPETSRFPAFELDSSKRD [LANCL2] | 57.7 °C | 55.4 °C | -0.0171 | -0.346 | -0.592 | -0.119
2 | MAAGTAAALAFLSQESRTRAGGVGGLRVPAPVTMDSFFFGCELSGHTRSFTFKVEEEDDAEHVLALTMLCLTEGAKDECNVVEVVARNHDHQEIAVPVANLKLSCQPMLSLDDFQLQPPVTFRLKSGSGPVRITGRHQIVTMSNDVSEEESEEEEEDSDEEEVELCPILPAKKQGGRP [NPM3] | 54 °C | 53 °C | -0.153 | -0.577 | -2.29 | 0.0933
3 | MSLKSERRGIHVDQSDLLCKKGCGYYGNPAWQGFCSKCWREEYHKARQKQIQEDWELAERLQREEEEAFASSQSSQGAQSLTFSKFEEKKTNEKTRKVTTVKKFFSASSRVGSKKEIQEAKAPSPSINRQTSIETDRVSKEFIEFLKTFHKTGQEIYKQTKLFLEGMHYKRDLSIEEQSECAQDFYHNVAERMQTRGKVPPERVEKIMDQIEKYIMTRLYKYVFCPETTDDEKKDLAIQKRIRALRWVTPQMLCVPVNEDIPEVSDMVVKAITDIIEMDSKRVPRDKLACITKCSKHIFNAIKITKNEPASADDFLPTLIYIVLKGNPPRLQSNIQYITRFCNPSRLMTGEDGYYFTNLCCAVAFIEKLDAQSLNLSQEDFDRYMSGQTSPRKQEAESWSPDACLGVKQMYKNLDLLSQLNERQERIMNEAKKLEKDLIDWTDGIAREVQDIVEKYPLEIKPPNQPLAAIDSENVENDKLPPPLQPQVYAG [RABGEF1] | 52.3 °C | 50.3 °C | 0.143 | 0.899 | -2.37 | -0.0709
4 | MPNSEPASLLELFNSIATQGELVRSLKAGNASKDEIDSAVKMLVSLKMSYKAAAGEDYKADCPPGNPAPTSNHGPDATEAEEDFVDPWTVQTSSAKGIDYDKLIVRFGSSKIDKELINRIERATGQRPHHFLRRGIFFSHRDMNQVLDAYENKKPFYLYTGRGPSSEAMHVGHLIPFIFTKWLQDVFNVPLVIQMTDDEKYLWKDLTLDQAYSYAVENAKDIIACGFDINKTFIFSDLDYMGMSSGFYKNVVKIQKHVTFNQVKGIFGFTDSDCIGKISFPAIQAAPSFSNSFPQIFRDRTDIQCLIPCAIDQDPYFRMTRDVAPRIGYPKPALLHSTFFPALQGAQTKMSASDPNSSIFLTDTAKQIKTKVNKHAFSGGRDTIEEHRQFGGNCDVDVSFMYLTFFLEDDDKLEQIRKDYTSGAMLTGELKKALIEVLQPLIAEHQARRKEVTDEIVKEFMTPRKLSFDFQ [WARS] | 56.7 °C | 56.3 °C | 0.127 | -0.453 | -0.825 | -0.199
5 | MAKRNAEKELTDRNWDQEDEAEEVGTFSMASEEVLKNRAIKKAKRRNVGFESDTGGAFKGFKGLVVPSGGGRFSGFGSGAGGKPLEGLSNGNNITSAPPFASAKAAADPKVAFGSLAANGPTTLVDKVSNPKTNGDSQQPSSSGLASSKACVGNAYHKQLAALNCSVRDWIVKHVNTNPLCDLTPIFKDYEKYLANIEQQHGNSGRNSESESNKVAAETQSPSLFGSTKLQQESTFLFHGNKTEDTPDKKMEVASEKKTDPSSLGATSASFNFGKKVDSSVLGSLSSVPLTGFSFSPGNSSLFGKDTTQSKPVSSPFPTKPLEGQAEGDSGECKGGDEEENDEPPKVVVTEVKEEDAFYSKKCKLFYKKDNEFKEKGIGTLHLKPTANQKTQLLVRADTNLGNILLNVLIPPNMPCTRTGKNNVLIVCVPNPPIDEKNATMPVTMLIRVKTSEDADELHKILLEKKDA [NUP50] | 51.9 °C | 52.8 °C | 0.204 | -1.56 | -1.75 | 0.0955
6 | MSKTNKSKSGSRSSRSRSASRSRSRSFSKSRSRSRSLSRSRKRRLSSRSRSRSYSPAHNRERNHPRVYQNRDFRGHNRGYRRPYYFRGRNRGFYPWGQYNRGGYGNYRSNWQNYRQAYSPRRGRSRSRSPKRRSPSPRSRSHSRNSDKSSSDRSRRSSSSRSSSNHSRVESSKRKSAKEKKSSSKDSRPSQAAGDNQGDEAKEQTFSGGTSQDTKASESSKPWPDATYGTGSASRASAVSELSPRERSPALKSPLQSVVVRRRSPRPSPVPKPSPPLSSTSQMGSTLPSGAGYQSGTHQGQFDHGSGSLSPSKKSPVGKSPPSTGSTYGSSQKEESAASGGAAYTKRYLEEQKTENGKDKEQKQTNTDKEKIKEKGSFSDTGLGDGKMKSDSFAPKTDSEKPFRGSQSPKRYKLRDDFEKKMADFHKEEMDDQDKDKAKGRKESEFDDEPKFMSKVIGANKNQEEEKSGKWEGLVYAPPGKEKQRKTEELEEESFPERSKKEDRGKRSEGGHRGFVPEKNFRVTAYKAVQEKSSSPPPRKTSESRDKLGAKGDFPTGKSSFSITREAQVNVRMDSFDEDLARPSGLLAQERKLCRDLVHSNKKEQEFRSIFQHIQSAQSQRSPSELFAQHIVTIVHHVKEHHFGSSGMTLHERFTKYLKRGTEQEAAKNKKSPEIHRRIDISPSTFRKHGLAHDEMKSPREPGYKAEGKYKDDPVDLRLDIERRKKHKERDLKRGKSRESVDSRDSSHSRERSAEKTEKTHKGSKKQKKHRRARDRSRSSSSSSQSSHSYKAEEYTEETEEREESTTGFDKSRLGTKDFVGPSERGGGRARGTFQFRARGRGWGRGNYSGNNNNNSNNDFQKRNREEEWDPEYTPKSKKYYLHDDREGEGSDKWVSRGRGRGAFPRGRGRFMFRKSSTSPKWAHDKFSGEEGEIEDDESGTENREEKDNIQPTTE [THRAP3] | 50.5 °C | 51.2 °C | -1.38 | -5.24 | -3.44 | 0.46
7 | MSSTSPNLQKAIDLASKAAQEDKAGNYEEALQLYQHAVQYFLHVVKYEAQGDKAKQSIRAKCTEYLDRAEKLKEYLKNKEKKAQKPVKEGQPSPADEKGNDSDGEGESDDPEKKKLQNQLQGAIVIERPNVKWSDVAGLEGAKEALKEAVILPIKFPHLFTGKRTPWRGILLFGPPGTGKSYLAKAVATEANNSTFFSISSSDLVSKWLGESEKLVKNLFQLARENKPSIIFIDEIDSLCGSRSENESEAARRIKTEFLVQMQGVGVDNDGILVLGATNIPWVLDSAIRRRFEKRIYIPLPEPHARAAMFKLHLGTTQNSLTEADFRELGRKTDGYSGADISIIVRDALMQPVRKVQSATHFKKVRGPSRADPNHLVDDLLTPCSPGDPGAIEMTWMDVPGDKLLEPVVSMSDMLRSLSNTKPTVNEHDLLKLKKFTEDFGQEG [VPS4B] | 50.5 °C | 50.2 °C | 0.414 | 0.98 | 1.43 | -0.125
8 | DNAJC21 | 50.7 °C | 49.9 °C | -0.451 | 2.06 | 1.36 | 0.168
9 | MNLEKLSKPELLTLFSILEGELEARDLVIEALKAQHRDTFIEERYGKYNISDPLMALQRDFETLKEKNDGEKQPVCTNPLSILKVVMKQCKNMQERMLSQLAAAESRHRKVILDLEEERQRHAQDTAEGDDVTYMLEKERERLTQQLEFEKSQVKKFEKEQKKLSSQLEEERSRHKQLSSMLVLECKKATNKAAEEGQKAGELSLKLEKEKSRVSKLEEELAAERKRGLQTEAQVEKQLSEFDIEREQLRAKLNREENRTKTLKEEMESLKKIVKDLEASHQHSSPNEQLKKPVTVSKGTATEPLMLMSVFCQTESFPAERTHGSNIAKMTNTGLPGPATPAYSYAKTNGHCDPEIQTTRELTAGNNVENQVPPREKSVALAQEKPVENGGCPVGIETPVPMPSPLSSSGSSLSPSSTASSSLTSSPCSSPVLTKRLLGSSASSPGYQSSYQVGINQRFHAARHKFQSQADQDQQASGLQSPPSRDLSPTLIDNSAAKQLARNTVTQVLSRFTSQQGPIKPVSPNSSPFGTDYRNLANTANPRGDTSHSPTPGKVSSPLSPLSPGIKSPTIPRAERGNPPPIPPKKPGLTPSPSATTPLTKTHSQAASLTTAEDLASSCSSNTVVANGKDVELLLPTSS [CTTNBP2NL] | 49.9 °C | 50.3 °C | 0.435 | -2.02 | -1.85 | -0.363
10 | MIALFNKLLDWFKALFWKEEMELTLVGLQYSGKTTFVNVIASGQFNEDMIPTVGFNMRKITKGNVTIKLWDIGGQPRFRSMWERYCRGVSAIVYMVDAADQEKIEASKNELHNLLDKPQLQGIPVLVLGNKRDLPGALDEKELIEKMNLSAIQDREICCYSISCKEKDNIDITLQWLIQHSKSRRS [ARL8A] | 54.3 °C | 54.4 °C | -0.0955 | -1.51 | -1.71 | -0.116
11 | MTSHYVIAIFALMSSCLATAGPEPGALCELSPVSASHPVQALMESFTVLSGCASRGTTGLPQEVHVLNLRTAGQGPGQLQREVTLHLNPISSVHIHHKSVVFLLNSPHPLVWHLKTERLATGVSRLFLVSEGSVVQFSSANFSLTAETEERNFPHGNEHLLNWARKEYGAVTSFTELKIARNIYIKVGEDQVFPPKCNIGKNFLSLNYLAEYLQPKAAEGCVMSSQPQNEEVHIIELITPNSNPYSAFQVDITIDIRPSQEDLEVVKNLILILKCKKSVNWVIKSFDVKGSLKIIAPNSIGFGKESERSMTMTKSIRDDIPSTQGNLVKWALDNGYSPITSYTMAPVANRFHLRLENNAEEMGDEEVHTIPPELRILLDPGALPALQNPPIRGGEGQNGGLPFPFPDISRRVWNEEGEDGLPRPKDPVIPSIQLFPGLREPEEVQGSVDIALSVKCDNEKMIVAVEKDSFQASGYSGMDVTLLDPTCKAKMNGTHFVLESPLNGCGTRPRWSALDGVVYYNSIVIQVPALGDSSGWPDGYEDLESGDNGFPGDMDEGDASLFTRPEIVVFNCSLQQVRNPSSFQEQPHGNITFNMELYNTDLFLVPSQGVFSVPENGHVYVEVSVTKAEQELGFAIQTCFISPYSNPDRMSHYTIIENICPKDESVKFYSPKRVHFPIPQADMDKKRFSFVFKPVFNTSLLFLQCELTLCTKMEKHPQKLPKCVPPDEACTSLDASIIWAMMQNKKTFTKPLAVIHHEAESKEKGPSMKEPNPISPPIFHGLDTLTVMGIAFAAFVIGALLTGALWYIYSHTGETAGRQQVPTSPPASENSSAAHSIGSTQSTPCSSSSTA [TGFBR3] | 53.8 °C | 54.4 °C | -0.155 | 1.1 | 2.26 | -0.094
12 | RPE | 56 °C | 55.2 °C | 0.306 | -0.485 | -1.28 | 0.356
